Literature values in patent US10663473B2, “Method of identifying a status of a mucosal intestinal epithelial barrier to improve treatment of inflammatory bowel disease” (Maximus Diagnostic Technologies LLC, priority 2016, dated 2020).

System: IBD patients
Conditions: all CD patients

B1: certolizumab pegol: anti-TNF agent, trade name Cimzia, sold by UCB S.A. (antibody, chains of the INN, looked up, V domains shown)
VH: EVQLVESGGGLVQPGGSLRLSCAASGYVFTDYGMNWVRQAPGKGLEWMGWINTYIGEPIYADSVKGRFTFSLDTSKSTAYLQMNSLRAEDTAVYYCARGYRSYAMDYWGQGTLVTVSS
VL: DIQMTQSPSSLSASVGDRVTITCKASQNVGTNVAWYQQKPGKAPKALIYSASFLYSGVPYRFSGSGSGTDFTLTISSLQPEDFATYYCQQYNIYPLTFGQGTKVEIK
modifications: Fab' PEG
  long-term clinical response rate: 50%
